Experimental findings from article PMC9684555, “Structure- and computational-aided engineering of an oxidase to produce isoeugenol from a lignin-derived compound” (Nature Communications, 2022) are described below.

The data set deals with the molecule itself. Kind of data set: crystal structure; sitting-drop vapor diffusion at 20 °C; crystals soaked 1 h with 5 mM 4-n-propylguaiacol; 2.9 Å; eight subunits in the asymmetric unit.

B1: S394V-EUGO5X mutant of eugenol oxidase (EUGO) from Rhodococcus jostii RHA1 (enzyme)
chain: MTRTLPPGVSDERFDAALQRFRDVVGDKWVLSTADELEAFRDPYPVGAAEANLPSAVVSPESTEQVQDIVRIANEYGIPLHPVSTGKNNGYGGAAPRLSGSVIVKTGERMNRILEVNEKYGYALLEPGVTYFDLYEYLQSHDSGLMLDCPDLGWGSVVGNTLDRGVGYTPYGDHFMWQTGLEVVLPQGEVMRTGMGALPGSDAWQLFPYGFGPFPDGMFTQSNLGIVTKMGIALMQRPPASQSFLITFDKEEDLEQIVDIMLPLRINMAPLQNVPVLRNIFMDAAAVSKRTEWFDGDGPMPAEAIERMKKDLDLGFWNFYGTLYGPPPLIEMYYGMIKEAFGKIPGARFFTHEERDDRGGHVLQDRHKINNGIPSLDELQLLDWVPNGGHIGFVPVSAPDGREAMKQFEMVRNRANEYNKDYMAQFIIGLREMYHVCLFIYDTADPEAREEILQMTKVLVREAAEAGYGEYRTHNALMDDVMATFNWGDGALLKFHEKIKDALDPNGIIAPGKSGIWPQRFRGQNL
modifications: covalently bound FAD cofactor
notes: eugenol oxidase (EUGO), Rhodococcus jostii RHA1, UniProt Q0SBK1; EUGO5X = S81H, A423M, H434Y, I445D, S518P, with S394V added; Tag-less protein after SUMO protease; crystals were soaked with 4-n-propylguaiacol; also called sixfold mutant S394V-EUGO5X; source: E. coli, from pBAD-His-Sumo-S394V-EUGO5X, purified (HisTrap, SUMO protease, reverse nickel, Superdex 200)
Regarding B1, the “stoichiometry N” value was determined as 2.
